Assay results: patent publication US20030226164, “Lambda integrase mediated recombination in plants” (Syngenta Participations AG, published 2003)

T1: Lambda Int-h (SynInt-h) E174K (Bacteriophage lambda) (UniProt P03700)
T1 sequence: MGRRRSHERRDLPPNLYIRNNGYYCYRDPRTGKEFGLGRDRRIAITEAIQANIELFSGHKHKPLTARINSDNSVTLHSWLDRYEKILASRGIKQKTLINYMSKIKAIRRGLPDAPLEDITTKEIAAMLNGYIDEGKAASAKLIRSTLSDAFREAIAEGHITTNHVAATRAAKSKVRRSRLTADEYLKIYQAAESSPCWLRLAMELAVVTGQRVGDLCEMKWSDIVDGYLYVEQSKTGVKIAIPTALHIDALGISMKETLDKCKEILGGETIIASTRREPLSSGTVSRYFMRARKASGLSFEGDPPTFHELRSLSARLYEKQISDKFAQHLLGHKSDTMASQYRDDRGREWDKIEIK

T2: Lambda Int-h/218 E174K,E218K (Bacteriophage lambda) (UniProt P03700)
T2 sequence: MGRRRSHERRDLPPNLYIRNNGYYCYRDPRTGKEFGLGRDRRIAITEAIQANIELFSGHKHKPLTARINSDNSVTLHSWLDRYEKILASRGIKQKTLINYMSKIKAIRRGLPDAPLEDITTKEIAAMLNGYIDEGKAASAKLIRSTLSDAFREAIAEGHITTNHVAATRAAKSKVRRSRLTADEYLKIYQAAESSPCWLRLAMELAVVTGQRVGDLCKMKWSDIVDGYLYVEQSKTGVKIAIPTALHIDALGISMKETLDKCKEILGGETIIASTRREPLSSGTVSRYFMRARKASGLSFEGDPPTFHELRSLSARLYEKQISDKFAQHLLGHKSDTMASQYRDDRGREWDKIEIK

T3: Lambda Int-h (SynInt-h) (Bacteriophage lambda, UniProt P03700 SEQ:1-356, E174K)
T3 sequence: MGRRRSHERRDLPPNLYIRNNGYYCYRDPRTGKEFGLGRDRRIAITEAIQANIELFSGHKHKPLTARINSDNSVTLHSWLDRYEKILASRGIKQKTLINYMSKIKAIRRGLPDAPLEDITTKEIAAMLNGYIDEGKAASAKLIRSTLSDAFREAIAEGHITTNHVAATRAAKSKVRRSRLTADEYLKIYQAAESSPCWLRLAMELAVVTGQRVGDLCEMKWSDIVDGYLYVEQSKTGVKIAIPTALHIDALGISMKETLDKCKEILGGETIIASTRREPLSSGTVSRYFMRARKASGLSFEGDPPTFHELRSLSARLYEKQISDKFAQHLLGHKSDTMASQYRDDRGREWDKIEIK

T4: Lambda Int-h/218 (Bacteriophage lambda, UniProt P03700 SEQ:1-356, E174K,E218K)
T4 sequence: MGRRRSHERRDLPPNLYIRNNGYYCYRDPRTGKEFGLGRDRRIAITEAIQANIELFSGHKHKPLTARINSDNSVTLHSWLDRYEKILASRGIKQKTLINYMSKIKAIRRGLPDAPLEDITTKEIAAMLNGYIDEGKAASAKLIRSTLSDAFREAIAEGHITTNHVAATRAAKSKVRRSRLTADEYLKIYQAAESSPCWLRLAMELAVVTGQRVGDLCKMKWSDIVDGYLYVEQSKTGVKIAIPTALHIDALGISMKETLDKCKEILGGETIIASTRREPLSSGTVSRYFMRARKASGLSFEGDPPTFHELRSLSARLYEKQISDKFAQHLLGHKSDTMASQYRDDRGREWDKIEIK


Legend:
[1] = molecular target: T1, Lambda Int-h (SynInt-h) E174K (Bacteriophage lambda); assay: cell_activity; details: attP x attB without IHF, maize BMS cells
[2] = molecular target: T2, Lambda Int-h/218 E174K,E218K (Bacteriophage lambda); assay: cell_activity; details: attP x attB without IHF, maize BMS cells
Lambda Int-h (SynInt-h) = molecular target: T3, Lambda Int-h (SynInt-h); assay: cell_activity; attB x attP without IHF, maize BMS cells; details: chain copies: 4
Protocol: (§1) Bombarded BMS cells are incubated in the dark at 28° C. for 48 hours. After incubation, the cells are assayed for luciferase expression levels.

Lambda Int-h/218 = molecular target: T4, Lambda Int-h/218; assay: as above; details: chain copies: 4
Protocol: as §1

| Molecule | activity (fold luciferase over substrate alone) [1] | activity (fold luciferase over substrate alone) [2] | activity (Lambda Int-h (SynInt-h)) | activity (Lambda Int-h/218) |
| --- | --- | --- | --- | --- |
| TCTGTTACAGGTCACTAATACCATCTAAGTAGTTGATTCATAGTGACTGCATATGTTGTGTTTTACAGTATTATGTAGTCTGTTTTTTATGCAAAATCTAATTTAATATATTGATATTTATATCATTTTACGTTTCTCGTTCAGCTTTTTTATACTAAGTTGGCATTATAAAAAAGCATTGCTTATCAATTTGTTGCAACGAACAGGTCACTATCAGTCAAAATAAAATCATTATTTGATTTC (double strand) [attP] | 15 | 49 | – | – |
| attB (dsDNA) DNA 1: TGAAGCCTGCTTTTTTATACTAACTTGAGCG DNA 2: CGCTCAAGTTAGTATAAAAAAGCAGGCTTCA | – | – | 15 fold luciferase over substrate alone | 49 fold luciferase over substrate alone |
